In the supplement of paper PMC7877785:
± gives the uncertainty stated by the source.

Assay: self-splicing fitness, log relative to wild type (ln ratio); higher = more splicing; Tetrahymena group I intron in knt gene, E. coli kanamycin selection, DiMSum; sequences stand for … in CUCUCU…GGAGGGAAAAGUUAUCAGGCAUGCACCUGGUAGCUAGUCUUUAAACCAAUAGAUUGCAUCGGUUUAAAAGGCAAGACCGUCAAAUUGCGGGAAAGGGGUCAACAGCCGUUCAGUACCAAGUCUCAGGGGAAACUUUGAGAUGGCCUUGCAAAGGGUAUGGUAAUAAGCUGACGGACAUGGUCCUAACCACGCAGCCAAGUCCUAAGUCAACAGAUCUUCUGUUGAUAUGGAUGCAGUUCACAGACUAAAUGUCGGUCGGGGAAGAUGUAUUCUUCUCAUAAGAUAUAGUCGGACCUCUCCUUAAUGGGAGCUAGCGGAUGAAGUGAUGCAACACUGGAGCCGCUGGGAACUAAUUUGUAUGCGAAAGUAUAUUGAUUAGUUUUGGAGUACUCGUGGUCG
In short: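 Fitness was computed with DiMSum as the error-weighted combination of replicate fold changes, kanamycin versus none, each normalised to wild type. The library randomised all eight intron nucleotides of the P1ex region, with the intron placed in the knt kanamycin-resistance gene on pET-22b(+) in E. coli BL21(DE3). Six replicate transformations were grown overnight at 37°C or 30°C on LB agar with or without 25 μg/mL kanamycin, plus 100 μg/mL carbenicillin, 50 μM IPTG and 0.2% rhamnose. Pooled colonies were amplicon-sequenced on an Illumina HiSeq 2500.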

| Sequence | self-splicing fitness (ln) (30 °C) | self-splicing fitness (ln) (37 °C) |
| --- | --- | --- |
| UUCCAGCAAUAUUACGUCGG | -3.28 ± 0.23 | -3.13 ± 0.4 |
| UUCCAGCAAUAUUACGUGAA | 0.179 ± 0.072 | -0.102 ± 0.094 |
| UUCCAGCAAUAUUACGUGCG | -1.88 ± 0.1 | -1.59 ± 0.11 |
| UUCCAGCAAUAUUACGUGUC | -2.18 ± 0.086 | -1.48 ± 0.098 |
| UUCCAGCAAUAUUACGUUAA | -1.16 ± 0.079 | 0.606 ± 0.093 |
| UUCCAGCAAUAUUACGUUCG | -2.67 ± 0.16 | -1.7 ± 0.23 |
| UUCCAGCAAUAUUACGUUGU | -2.93 ± 0.21 | -2.74 ± 0.27 |
| UUCGAGCAAUAUUACGAAUG | -3.37 ± 0.47 | -2.26 ± 0.31 |
| UUCGAGCAAUAUUACGAGAG | -3.55 ± 0.44 | -2.72 ± 0.48 |
| UUCGAGCAAUAUUACGAGCC | -3.05 ± 0.21 | -2.68 ± 0.36 |
| UUCGAGCAAUAUUACGAGUG | -1.81 ± 0.17 | -0.223 ± 0.15 |
| UUCGAGCAAUAUUACGCCCA | -2.1 ± 0.31 | -1.15 ± 0.22 |
| UUCGAGCAAUAUUACGCCUC | -3.3 ± 0.4 | -1.3 ± 0.4 |
| UUCGAGCAAUAUUACGCGAC | -3.69 ± 0.32 | -1.18 ± 0.19 |
| UUCGAGCAAUAUUACGGCCA |  | -0.028 ± 0.31 |
| UUCGAGCAAUAUUACGGCCG |  | -1.41 ± 0.35 |
| UUCGAGCAAUAUUACGGCCU | -3.17 ± 0.33 | -2.84 ± 0.35 |
| UUCGAGCAAUAUUACGGGCC | -3.79 ± 0.32 | -2.21 ± 0.33 |
| UUCGAGCAAUAUUACGGGGA | -1.7 ± 0.18 | -0.829 ± 0.19 |
| UUCGAGCAAUAUUACGGGGG | -2.88 ± 0.3 | -2.23 ± 0.42 |
| UUCGAGCAAUAUUACGUAAA | -2.48 ± 0.19 | -1.07 ± 0.16 |
| UUCGAGCAAUAUUACGUAAU | -2.06 ± 0.26 | -1.9 ± 0.36 |
| UUCGAGCAAUAUUACGUAGA | -3.11 ± 0.16 | -1.97 ± 0.17 |
| UUCGAGCAAUAUUACGUCAA | -1.54 ± 0.2 | -2.38 ± 0.37 |
| UUCGAGCAAUAUUACGUCCU | -3.78 ± 0.47 | -2.4 ± 0.41 |
| UUCGAGCAAUAUUACGUGAA | -1.55 ± 0.27 | 1.01 ± 0.28 |
| UUCGAGCAAUAUUACGUGGU | -3.49 ± 0.28 | -3.18 ± 0.2 |

| Sequence | self-splicing fitness (ln) (30 °C) | self-splicing fitness (ln) (37 °C) |
| --- | --- | --- |
| UUCUAGCAAUAUUACGAACA |  | -0.35 ± 0.37 |
| UUCUAGCAAUAUUACGACUA | -1.83 ± 0.31 | -1.19 ± 0.21 |
| UUCUAGCAAUAUUACGAUGA | -0.819 ± 0.19 | -0.0657 ± 0.2 |
| UUCUAGCAAUAUUACGAUGG | -2.49 ± 0.19 | -1.02 ± 0.34 |
| UUCUAGCAAUAUUACGAUUC | -1.98 ± 0.34 | -2.5 ± 0.49 |
| UUCUAGCAAUAUUACGCACU | -1.79 ± 0.29 | -1.69 ± 0.38 |
| UUCUAGCAAUAUUACGCAGG | -3.52 ± 0.4 |  |
| UUCUAGCAAUAUUACGCCGA | -0.96 ± 0.23 | 0.163 ± 0.25 |
| UUCUAGCAAUAUUACGCGAC | -1.97 ± 0.38 |  |
| UUCUAGCAAUAUUACGCGGG | -3.28 ± 0.23 | -2.29 ± 0.22 |
| UUCUAGCAAUAUUACGCGUC | -3.14 ± 0.39 | -1.45 ± 0.25 |
| UUCUAGCAAUAUUACGCUUA | -1.24 ± 0.12 | -0.839 ± 0.14 |
| UUCUAGCAAUAUUACGCUUU | -3.89 ± 0.26 | -1.82 ± 0.22 |
| UUCUAGCAAUAUUACGGAAA |  | -1.4 ± 0.45 |
| UUCUAGCAAUAUUACGGAUU | -2.7 ± 0.15 | -0.761 ± 0.14 |
| UUCUAGCAAUAUUACGGCUG | -2.38 ± 0.21 | -1.6 ± 0.2 |
| UUCUAGCAAUAUUACGGGAA | -2.38 ± 0.19 | -2.8 ± 0.28 |
| UUCUAGCAAUAUUACGUAUC | -3.32 ± 0.27 | -2.05 ± 0.22 |
| UUCUAGCAAUAUUACGUCCA | -2.13 ± 0.19 | -0.134 ± 0.17 |
| UUCUAGCAAUAUUACGUCUA | -3.64 ± 0.26 | -2.2 ± 0.17 |
| UUCUAGCAAUAUUACGUUGG | -2.65 ± 0.24 |  |
| UUGAAGCAAUAUUACGAACA | 0.602 ± 0.15 | -0.488 ± 0.23 |
| UUGAAGCAAUAUUACGAAUC | -3.58 ± 0.37 | -2.12 ± 0.32 |
| UUGAAGCAAUAUUACGACAG | 0.483 ± 0.091 | 0.232 ± 0.11 |
| UUGAAGCAAUAUUACGACCA | -0.132 ± 0.12 | 0.61 ± 0.15 |
| UUGAAGCAAUAUUACGACUC | -1.26 ± 0.079 | -0.526 ± 0.11 |
| UUGAAGCAAUAUUACGACUU | -1.37 ± 0.14 | 0.101 ± 0.17 |

| Sequence | self-splicing fitness (ln) (30 °C) | self-splicing fitness (ln) (37 °C) |
| --- | --- | --- |
| UUGAAGCAAUAUUACGAGUA | -1.83 ± 0.077 | -0.59 ± 0.085 |
| UUGAAGCAAUAUUACGAUCU | -1.3 ± 0.13 | -0.67 ± 0.14 |
| UUGAAGCAAUAUUACGCACG | -0.255 ± 0.15 | -0.521 ± 0.15 |
| UUGAAGCAAUAUUACGCACU | -0.156 ± 0.091 | 0.362 ± 0.1 |
| UUGAAGCAAUAUUACGCCGG | -0.0467 ± 0.11 | 0.0153 ± 0.15 |
| UUGAAGCAAUAUUACGCCGU | -1.33 ± 0.15 | -0.893 ± 0.18 |
| UUGAAGCAAUAUUACGCUAC |  | -1.75 ± 0.37 |
| UUGAAGCAAUAUUACGCUUG | -1.02 ± 0.064 | -0.679 ± 0.087 |
| UUGAAGCAAUAUUACGGAAA | -0.265 ± 0.1 | -0.0838 ± 0.14 |
| UUGAAGCAAUAUUACGGAGG | -0.866 ± 0.11 | -0.64 ± 0.14 |
| UUGAAGCAAUAUUACGGAUA | -0.345 ± 0.08 | -0.413 ± 0.1 |
| UUGAAGCAAUAUUACGGCUU | -3.03 ± 0.26 | -2.71 ± 0.3 |
| UUGAAGCAAUAUUACGGGAG | -1.2 ± 0.1 | -0.884 ± 0.12 |
| UUGAAGCAAUAUUACGGGCG | -0.128 ± 0.061 | 0.407 ± 0.084 |
| UUGAAGCAAUAUUACGGGGC | -3.3 ± 0.2 | -2.74 ± 0.3 |
| UUGAAGCAAUAUUACGGUUC | -3.01 ± 0.2 | -2.08 ± 0.27 |
| UUGAAGCAAUAUUACGUAUC |  | -1.93 ± 0.42 |
| UUGAAGCAAUAUUACGUGGA | -2.33 ± 0.11 | -1.6 ± 0.14 |
| UUGAAGCAAUAUUACGUGGG | -2.69 ± 0.099 | -1.35 ± 0.1 |
| UUGAAGCAAUAUUACGUUAA | -1.47 ± 0.075 | -0.311 ± 0.11 |
| UUGAAGCAAUAUUACGUUAC |  | -2.51 ± 0.23 |
| UUGCAGCAAUAUUACGAGGU | -3.94 ± 0.33 | -2.65 ± 0.44 |
| UUGCAGCAAUAUUACGAUUC | -3.53 ± 0.38 | -1.71 ± 0.19 |
| UUGCAGCAAUAUUACGCCAU | -2.8 ± 0.11 | -2.49 ± 0.16 |
| UUGCAGCAAUAUUACGCCCU | 0.32 ± 0.46 |  |
